Substrate in this data set: CCCCCCCCCCCC(=O)Oc1ccc([N+](=O)[O-])cc1
Nature of the data set: p-nitrophenol release, Michaelis-Menten. In kind it is biochemical, Rhizomucor miehei.

B1: Rhizomucor miehei lipase (RML) (Rhizomucor miehei) (protein)
chain: VPIKRQSNSTVDSLPPLIPSRTSAPSSSPSTTDPEAPAMSRNGPLPSDVETKYGMALNATSYPDSVVQAMSIDGGIRAATSQEINELTYYTTLSANSYCRTVIPGATWDCIHCDATEDLKIIKTWSTLIYDTNAMVARGDSEKTIYIVFRGSSSIRNWIADLTFVPVSYPPVSGTKVHKGFLDSYGEVQNELVATVLDQFKQYPSYKVAVTGHSLGGATALLCALDLYQREEGLSSSNLFLYTQGQPRVGDPAFANYVVSTGIPYRRTVNERDIVPHLPPAAFGFLHAGEEYWITDNSPETVQVCTSDLETSDCSNSIVPFTSVLDHLSYFGINTGLCT
By Km is commonly meant the substrate concentration at which the rate is half of its maximum. For the protein B1, under “at the enzyme's optimal conditions (optimum 45 °C)”, the Km amounted to 92 µM.

B2: Rhizomucor miehei lipase (RML) (Rhizomucor miehei; E324I/N214M/N358M) (protein)
chain: VPIKRQSNSTVDSLPPLIPSRTSAPSSSPSTTDPEAPAMSRNGPLPSDVETKYGMALNATSYPDSVVQAMSIDGGIRAATSQEINELTYYTTLSANSYCRTVIPGATWDCIHCDATEDLKIIKTWSTLIYDTNAMVARGDSEKTIYIVFRGSSSIRNWIADLTFVPVSYPPVSGTKVHKGFLDSYGEVQMELVATVLDQFKQYPSYKVAVTGHSLGGATALLCALDLYQREEGLSSSNLFLYTQGQPRVGDPAFANYVVSTGIPYRRTVNERDIVPHLPPAAFGFLHAGEEYWITDNSPITVQVCTSDLETSDCSNSIVPFTSVLDHLSYFGIMTGLCT
Consider B2, for which the Michaelis constant (Km) (at the enzyme's optimal conditions (optimum 55 °C)) was 31.75 µM.

(Values after paper PMC11727178, “Computer-Aided Design to Improve the Thermal Stability of Rhizomucor miehei Lipase” (Foods, 2024).)
